Test results reported in patent US20170088600A1.
Where “and” joins values, the source holds several entries; their conditions need not be identical. Equal entries are not always repeated.

Tests used:
[1] = biological target: TRAIL-R2-Fc (human TRAIL-R2 aa 58-184, thrombin site, human IgG1 Fc), wild type (human) (UniProt O14763); experiment: SPR, KDave
[2] = biological target: CD155-Fc (CD155 / poliovirus receptor Fc fusion) (UniProt P15151); experiment: SPR, KDave
[3] = biological target: TRAIL-R2-Fc (human TRAIL-R2 aa 58-184, thrombin site, human IgG1 Fc), wild type (human) (UniProt O14763); experiment: SPR kinetic fit, 1:1 Langmuir; TRAIL-R2-Fc captured, UL141 analyte
[4] = biological target: TRAIL-R1-Fc (human TRAIL-R1 ectodomain Fc fusion) (human) (UniProt O00220); experiment: SPR, steady-state analysis (KDeq); TRAIL-R1-Fc captured, UL141 analyte
[5] = biological target: TRAIL-R1-Fc (human TRAIL-R1 ectodomain Fc fusion) (human) (UniProt O00220); experiment: SPR, average of KDeq and kinetic KD (KDave)
[6] = biological target: TRAIL-R2-Fc (human TRAIL-R2 aa 58-184, thrombin site, human IgG1 Fc), wild type (human) (UniProt O14763); experiment: SPR, WT TRAIL-R2-Fc captured, UL141 as analyte
[7] = biological target: TRAIL-R1-Fc (human TRAIL-R1 ectodomain Fc fusion) (human) (UniProt O00220); experiment: SPR kinetic fit, 1:1 Langmuir; TRAIL-R1-Fc captured, UL141 analyte
[8] = biological target: TRAIL-R2-Fc K155A (human) (UniProt O14763); experiment: SPR, mutant TRAIL-R2-Fc captured, UL141 as analyte
[9] = biological target: TRAIL-R2-Fc M152A (human) (UniProt O14763); experiment: SPR, mutant TRAIL-R2-Fc captured, UL141 as analyte
[10] = biological target: TRAIL-R2-Fc V167A (human) (UniProt O14763); experiment: SPR, mutant TRAIL-R2-Fc captured, UL141 as analyte
[11] = biological target: TRAIL-R2-Fc R154A (human) (UniProt O14763); experiment: SPR, mutant TRAIL-R2-Fc captured, UL141 as analyte
[12] = biological target: TRAIL-R2-Fc D148A (human) (UniProt O14763); experiment: SPR, mutant TRAIL-R2-Fc captured, UL141 as analyte
[13] = biological target: TRAIL-R2-Fc F112A (human) (UniProt O14763); experiment: SPR, mutant TRAIL-R2-Fc captured, UL141 as analyte
[14] = biological target: TRAIL-R2-Fc E78A/D109A (human) (UniProt O14763); experiment: SPR, mutant TRAIL-R2-Fc captured, UL141 as analyte
[15] = biological target: TRAIL-R2-Fc P150A (human) (UniProt O14763); experiment: SPR, mutant TRAIL-R2-Fc captured, UL141 as analyte
[16] = biological target: TRAIL-R2-Fc M152A/R154A/K155A (human) (UniProt O14763); experiment: SPR, mutant TRAIL-R2-Fc captured, UL141 as analyte
[17] = biological target: TRAIL-R2-Fc L110A/L114A (human) (UniProt O14763); experiment: SPR, mutant TRAIL-R2-Fc captured, UL141 as analyte
[18] = biological target: CD155-Fc (CD155 / poliovirus receptor Fc fusion) (UniProt P15151); experiment: SPR kinetic fit, 1:1 Langmuir; CD155-Fc captured, UL141 analyte

Sequence of TRAIL-R2-Fc E78A/D109A (human) (O14763 other isoform, or with tags, fused parts or gaps E78A D109A E78A D109A limits assumed): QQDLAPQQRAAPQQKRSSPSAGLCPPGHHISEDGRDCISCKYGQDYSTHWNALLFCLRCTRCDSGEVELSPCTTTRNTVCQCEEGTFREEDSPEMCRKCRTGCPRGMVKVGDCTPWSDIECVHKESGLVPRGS
Sequence of UL141 ectodomain of human cytomegalovirus (HCMV FIX strain), C-terminal poly-histidine tag (ligand) (Q6RJQ3 30-279, tags left off): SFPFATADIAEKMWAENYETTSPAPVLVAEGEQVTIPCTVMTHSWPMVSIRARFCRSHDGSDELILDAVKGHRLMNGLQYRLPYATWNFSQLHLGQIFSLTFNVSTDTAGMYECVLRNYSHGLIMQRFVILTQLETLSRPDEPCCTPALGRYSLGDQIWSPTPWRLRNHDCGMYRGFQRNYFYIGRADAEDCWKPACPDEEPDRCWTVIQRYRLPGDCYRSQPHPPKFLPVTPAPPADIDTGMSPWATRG
Sequence of TRAIL-R2-Fc M152A (human) (O14763 other isoform, or with tags, fused parts or gaps M152A M152A limits assumed): as the sequence (O14763 other isoform, or with tags, fused parts or gaps E78A D109A E78A D109A limits assumed) above, with A21E, A52D, M95A counted along it
Sequence of TRAIL-R2-Fc D148A (human) (O14763 other isoform, or with tags, fused parts or gaps D148A D148A limits assumed): as the sequence (O14763 other isoform, or with tags, fused parts or gaps E78A D109A E78A D109A limits assumed) above, with A21E, A52D, D91A counted along it
Sequence of TRAIL-R2-Fc F112A (human) (O14763 other isoform, or with tags, fused parts or gaps F112A F112A limits assumed): as the sequence (O14763 other isoform, or with tags, fused parts or gaps E78A D109A E78A D109A limits assumed) above, with A21E, A52D, F55A counted along it
Sequence of TRAIL-R2-Fc L110A/L114A (human) (O14763 other isoform, or with tags, fused parts or gaps L110A L114A L110A L114A limits assumed): as the sequence (O14763 other isoform, or with tags, fused parts or gaps E78A D109A E78A D109A limits assumed) above, with A21E, A52D, L53A, L57A counted along it
Sequence of TRAIL-R2-Fc K155A (human) (O14763 other isoform, or with tags, fused parts or gaps K155A K155A limits assumed): as the sequence (O14763 other isoform, or with tags, fused parts or gaps E78A D109A E78A D109A limits assumed) above, with A21E, A52D, K98A counted along it
Sequence of TRAIL-R2-Fc R154A (human) (O14763 other isoform, or with tags, fused parts or gaps R154A R154A limits assumed): as the sequence (O14763 other isoform, or with tags, fused parts or gaps E78A D109A E78A D109A limits assumed) above, with A21E, A52D, R97A counted along it
Sequence of TRAIL-R2-Fc (human TRAIL-R2 aa 58-184, thrombin site, human IgG1 Fc), wild type (human) (O14763 other isoform, or with tags, fused parts or gaps limits assumed): as the sequence (O14763 other isoform, or with tags, fused parts or gaps E78A D109A E78A D109A limits assumed) above, with A21E, A52D counted along it
Sequence of TRAIL-R1-Fc (human TRAIL-R1 ectodomain Fc fusion) (human) (O00220 24-239): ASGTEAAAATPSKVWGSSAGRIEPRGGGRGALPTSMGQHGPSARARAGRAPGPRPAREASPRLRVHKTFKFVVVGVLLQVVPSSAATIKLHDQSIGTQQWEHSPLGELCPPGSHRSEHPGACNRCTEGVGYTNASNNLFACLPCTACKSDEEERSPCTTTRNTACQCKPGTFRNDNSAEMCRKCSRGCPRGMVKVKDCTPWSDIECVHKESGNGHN
Sequence of TRAIL-R2-Fc M152A/R154A/K155A (human) (O14763 other isoform, or with tags, fused parts or gaps M152A R154A K155A M152A R154A K155A limits assumed): as the sequence (O14763 other isoform, or with tags, fused parts or gaps E78A D109A E78A D109A limits assumed) above, with A21E, A52D, M95A, R97A, K98A counted along it
Sequence of CD155-Fc (CD155 / poliovirus receptor Fc fusion) (P15151 21-343): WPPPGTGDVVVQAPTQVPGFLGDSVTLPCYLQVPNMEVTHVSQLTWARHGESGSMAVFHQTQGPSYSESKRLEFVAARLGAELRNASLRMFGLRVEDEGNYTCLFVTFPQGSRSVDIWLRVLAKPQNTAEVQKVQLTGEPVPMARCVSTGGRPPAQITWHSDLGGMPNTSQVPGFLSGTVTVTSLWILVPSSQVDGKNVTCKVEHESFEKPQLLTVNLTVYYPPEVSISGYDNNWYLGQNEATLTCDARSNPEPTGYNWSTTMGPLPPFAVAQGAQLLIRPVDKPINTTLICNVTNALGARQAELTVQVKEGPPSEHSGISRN
Sequence of TRAIL-R2-Fc P150A (human) (O14763 other isoform, or with tags, fused parts or gaps P150A P150A limits assumed): as the sequence (O14763 other isoform, or with tags, fused parts or gaps E78A D109A E78A D109A limits assumed) above, with A21E, A52D, P93A counted along it
Sequence of TRAIL-R2-Fc V167A (human) (O14763 other isoform, or with tags, fused parts or gaps V167A V167A limits assumed): as the sequence (O14763 other isoform, or with tags, fused parts or gaps E78A D109A E78A D109A limits assumed) above, with A21E, A52D, V110A counted along it

UL141 ectodomain of human cytomegalovirus (HCMV FIX strain), C-terminal poly-histidine tag (ligand)
Kd [1]: 6 nM | Kd [2]: 2 nM | Kd [3]: 5.96 nM | koff [3]: 7.21e-05 s⁻¹ | kon [3]: 12100 M⁻¹ s⁻¹ | Kd [4]: 2.27 nM | Kd [5]: 2300 nM | Kd [6]: 6 nM and 5.95 nM | koff [6]: 7.21e-05 s⁻¹ | kon [6]: 12100 M⁻¹ s⁻¹ | Kd [7]: 2330 nM | koff [7]: 0.014 s⁻¹ | kon [7]: 6020 M⁻¹ s⁻¹ | Kd [8]: 7.74 nM | koff [8]: 0.00038 s⁻¹ | kon [8]: 49100 M⁻¹ s⁻¹ | Kd [9]: 7.49 nM | koff [9]: 0.000382 s⁻¹ | kon [9]: 51000 M⁻¹ s⁻¹ | Kd [10]: 15.5 nM | fold lower binding than wild type [10]: 2.5 fold | koff [10]: 0.00048 s⁻¹ | kon [10]: 31000 M⁻¹ s⁻¹ | Kd [11]: 6.26 nM | koff [11]: 0.000243 s⁻¹ | kon [11]: 38800 M⁻¹ s⁻¹ | Kd [12]: 55.3 nM | fold lower binding than wild type [12]: 10 fold | koff [12]: 0.0013 s⁻¹ | kon [12]: 23500 M⁻¹ s⁻¹ | Kd [13]: 630 nM | fold lower binding than wild type [13]: 100 fold | koff [13]: 0.00566 s⁻¹ | kon [13]: 8980 M⁻¹ s⁻¹ | Kd [14]: 60.4 nM | fold lower binding than wild type [14]: 10 fold | koff [14]: 0.00151 s⁻¹ | kon [14]: 25000 M⁻¹ s⁻¹ | Kd [15]: 8.32 nM | koff [15]: 0.000391 s⁻¹ | kon [15]: 47000 M⁻¹ s⁻¹ | Kd [16]: 7.39 nM | koff [16]: 0.00027 s⁻¹ | kon [16]: 36500 M⁻¹ s⁻¹ | Kd [17]: 42.7 nM | fold decrease in binding affinity versus wild type [17]: 7 fold | fold lower binding than wild type [17]: 10 fold | koff [17]: 0.00064 s⁻¹ | kon [17]: 15000 M⁻¹ s⁻¹ | Kd [18]: 1.97 nM | koff [18]: 0.000346 s⁻¹ | kon [18]: 176000 M⁻¹ s⁻¹
